What was measured:
[1] = molecular target: T1, PD1 on activated human CD4 and CD8 T cells (human, UniProt Q15116 25-288); test: flow cytometry, CD3/CD28-activated human PBMCs gated on CD3+CD4+ T cells, PE anti-human Fc secondary antibody; TA constructs pre-incubated with Matriptase, unmasked controls not
T1 construct: whole, on cells; Endogenous PD1 on CD3/CD28-stimulated T cells; also called human PD1; PD1 receptor
Description: (§1) Three formats of TA PD1-IL2v molecules and respective controls were assessed for their capacity to bind to activated PD1 positive CD8 T cells and CD4 T cells within PBMCs in comparison to the respective unmasked molecules.
(§2) PBMCs were purchased from Biomex from a healthy donor (Lot 5000729PB). The PBMCs were stimulated for three days with CD3 and CD28 to induce upregulation of PD1 on T cells. Therefore, PBMCs were seeded in medium (RPMI1640, 10% FCS, 2 mM Glutamine) into cell culture flasks that were coated for 1 hour at 37° C. with 1 μg/ml CD3 (clone OKT3, 302914, BioLegend). CD28 was added in solution to the PBMCs at a concentration of 1 μg/ml (clone CD28.2, 302914, BioLegend). After three days, PBMCs were harvested and transferred into a 96 well round bottom plate (200′000 cells per well). The cells were washed with FACS buffer (PBS, 2% FBS, 5 mM EDTA, 0.025% NaN3) and stained with 30 μl of corresponding TA PD1-IL2v constructs in FACS buffer for 30 min at 4° C. Prior to the staining, 20 μg of the TA PD1-IL2v constructs were digested with 4 μl Matriptase (Enzo ˜2.5 U/μl, ALX-201-246-U25, Lot 12152015, or without Matriptase for the unmasked controls) for 2 hours at 37° C. in 40 μl Matriptase buffer (50 mM Tris, 50 mM NaCl, 0.01% Tween 20, pH 9.0). After the staining, the cells were washed twice with FACS buffer to remove unbound molecules. Then 30 μl of the diluted PE anti-human Fc specific secondary antibody (1:50 dilution, 109-116-170, Jackson ImmunoResearch) was added to the cells. After 30 min incubation at 4° C. the cells were washed twice with FACS buffer. To detect T cells, PBMCs were stained with 30 μl of a mixture of CD3 PE/Cyanine7 (clone UCHT1, 300420, BioLegend), CD4 FITC (clone RPA-T4, 300528, BioLegend) and CD8 APC/Cyanine7 (clone HIT8a, 300926, BioLegend) for 30 min at 4° C. The unbound antibodies were removed by washing twice with FACS buffer. Finally the cells resuspended in 150 μl FACS buffer and measured using a BD Fortessa gating on CD3+CD4+ cells (CD4 T cells) and CD3+CD8+ cells (CD8 T cells).

[2] = molecular target: T1, PD1 on activated human CD4 and CD8 T …; test: flow cytometry on CD3/CD28-activated T cells (CD4 and CD8) within human PBMCs; no matriptase; PE anti-human Fc secondary
Description: as §2, with “Then 30 μl of the diluted PE anti-human Fc specific secondary antibody (1:50 dilution, 109-116-170, Jackson ImmunoResearch) was added to the cells. After 30 min incubation at 4° C. the cells were washed twice with FACS buffer. To detect T cells, PBMCs were stained with 30 μl of a mixture of CD3 PE/Cyanine7 (clone UCHT1, 300420, BioLegend), CD4 FITC (clone RPA-T4, 300528, BioLegend) and CD8 APC/Cyanine7 (clone HIT8a, 300926, BioLegend) for 30 min at 4° C. The unbound antibodies were removed by washing twice with FACS buffer.” left out

[3] = molecular target: T1, PD1 on activated human CD4 and CD8 T …; test: flow cytometry, CD3/CD28-activated human PBMCs gated on CD3+CD8+ T cells, PE anti-human Fc secondary antibody; TA constructs pre-incubated with Matriptase, unmasked controls not
Description: as §1, §2

T1 sequence (Q15116 25-288): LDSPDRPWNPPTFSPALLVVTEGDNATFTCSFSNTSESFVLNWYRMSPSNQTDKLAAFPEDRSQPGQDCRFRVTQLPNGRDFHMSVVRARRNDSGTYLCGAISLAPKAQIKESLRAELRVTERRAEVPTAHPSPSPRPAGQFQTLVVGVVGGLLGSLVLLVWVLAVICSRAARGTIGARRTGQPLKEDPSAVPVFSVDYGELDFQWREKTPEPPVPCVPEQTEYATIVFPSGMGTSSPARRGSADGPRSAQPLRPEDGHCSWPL

EC50 (read off the curve) [1]: ~1 nM | fold binding capacity versus the "in line" and knob/hole formats [2]: ~2 fold | EC50 (read off the curve) [3]: ~2 nM
B1: human PD1-IL2v, unmasked, N-term (antibody, human IgG1, kappa, L234A L235A)
light: DIVMTQSPDSLAVSLGERATINCKASESVDTSDNSFIHWYQQKPGQSPKLLIYRSSTLESGVPDRFSGSGSGTDFTLTISSLQAEDVAVYYCQQNYDVPWTFGQGTKVEIKRTVAAPSVFIFPPSDEQLKSGTASVVCLLNNFYPREAKVQWKVDNALQSGNSQESVTEQDSKDSTYSLSSTLTLSKADYEKHKVYACEVTHQGLSSPVTKSFNRGEC
heavy: EVQLLESGGGLVQPGGSLRLSCAASGFSFSSYTMSWVRQAPGKGLEWVATISGGGRDIYYPDSVKGRFTISRDNSKNTLYLQMNSLRAEDTAVYYCVLLTGRVYFALDSWGQGTLVTVSSASTKGPSVFPLAPSSKSTSGGTAALGCLVKDYFPEPVTVSWNSGALTSGVHTFPAVLQSSGLYSLSSVVTVPSSSLGTQTYICNVNHKPSNTKVDKKVEPKSCDKTHTCPPCPAPEAAGGPSVFLFPPKPKDTLMISRTPEVTCVVVDVSHEDPEVKFNWYVDGVEVHNAKTKPREEQYNSTYRVVSVLTVLHQDWLNGKEYKCKVSNKALGAPIEKTISKAKGQPREPQVCTLPPSRDELTKNQVSLSCAVKGFYPSDIAVEWESNGQPENNYKTTPPVLDSDGSFFLVSKLTVDKSRWQQGNVFSCSVMHEALHNHYTQKSLSLSPGK
chain: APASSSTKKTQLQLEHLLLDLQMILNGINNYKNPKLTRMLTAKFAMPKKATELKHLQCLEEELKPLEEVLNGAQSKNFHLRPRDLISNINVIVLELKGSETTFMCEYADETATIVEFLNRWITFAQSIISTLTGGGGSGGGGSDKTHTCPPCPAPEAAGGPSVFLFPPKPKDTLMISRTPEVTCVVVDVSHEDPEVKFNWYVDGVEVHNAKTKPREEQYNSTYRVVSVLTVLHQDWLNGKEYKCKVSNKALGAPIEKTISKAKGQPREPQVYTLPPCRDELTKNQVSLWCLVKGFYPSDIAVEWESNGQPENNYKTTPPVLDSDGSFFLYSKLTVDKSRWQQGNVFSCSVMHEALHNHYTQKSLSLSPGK
notes: One-armed human PD1-targeted human IgG PG LALA with IL2v fused N-terminally to the hinge of the Fc knob chain (non-masked control); also called P1AG3071; P1AG3071-004

Source: patent US20240376171A1 (Hoffmann-La Roche, published 2024)
